Common to all, as to format: biochemical
For experiment [1], the target named is T1, polymorphonuclear leucocyte elastase from human sputum (Homo sapiens, UniProt P08246).
T1 construct: Polymorphonuclear leukocyte elastase from human sputum (EPC Co; Funakoshi Yakuhin); purchased EPC Co. (via Funakoshi Yakuhin); host or cells: human sputum
T1 sequence (P08246 30-267): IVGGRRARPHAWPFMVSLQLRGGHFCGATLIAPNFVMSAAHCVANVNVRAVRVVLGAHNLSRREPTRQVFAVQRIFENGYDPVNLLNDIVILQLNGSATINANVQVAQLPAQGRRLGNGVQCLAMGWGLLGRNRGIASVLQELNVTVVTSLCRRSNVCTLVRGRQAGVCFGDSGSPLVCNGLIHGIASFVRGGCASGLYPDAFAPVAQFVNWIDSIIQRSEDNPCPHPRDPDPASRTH
Kind of experiment: Assay for elastase inhibitory activity (Example 35). To be noted: enzyme 2 × 10^-8 M, substrate 3.0 × 10^-4 M. The method, then:
(§1) Assay method used was as follows.
(§2) Buffer: 0.1M (2-hydroxyethyl)piperazine-N'-2-ethansulfonic acid (HEPES), 0.5M NaCl, pH 7.5.
(§3) Enzyme concentration: the following enzyme was dissolved in the above-mentioned buffer to a concentration 9 times that shown in Table 22.
(§4) A. Polymorphonuclear leucocyte elastase from human sputum (EPC Co., Funakoshi Yakuhin)
Substrate solution: for the enzymes A, B, C, D and E, the following substrate a, b, c, d or e, respectively, was dissolved in a solution of DMSO +the above-mentioned buffer (1:9) (note, final concentration of DMSO was 10% in the buffer) to a concentration of 9 times that shown in Table 22.
(§5) a. MeO-Suc-Ala-Ala-Pro-Val-pNA (Bachem) […]
(§6) To wells of an ELISA 96-well microtiter plate, were added 120 μl of the buffer and the 20 μl of a sample solution of (Arg^58 -Ala^107) SLPI obtained in Example 34, followed by 20 μl of the enzyme solution. The mixture was reacted at 37° C. for 10 minutes. Next, 20 μl of the substrate was added, and developed at 37° C. The developed color was measured by absorption at 405 nm.
(§7) As a control the same procedure was carried out using SLPI.

For another experiment, the target named is T2, Bovine spleen trypsin (Bos taurus, UniProt P00760).
T2 construct: purchased Sigma
T2 sequence (P00760 24-246): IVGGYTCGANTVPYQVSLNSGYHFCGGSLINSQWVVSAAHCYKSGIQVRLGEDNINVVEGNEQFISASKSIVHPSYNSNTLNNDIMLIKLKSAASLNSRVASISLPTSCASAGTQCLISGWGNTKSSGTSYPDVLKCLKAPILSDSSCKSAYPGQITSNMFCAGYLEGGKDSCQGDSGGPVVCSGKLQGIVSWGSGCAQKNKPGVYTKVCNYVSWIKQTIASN
In words: Assay for trypsin inhibitory activity (Example 35). To be noted: enzyme 2 × 10^-7 M, substrate 1.0 × 10^-3 M. The method, then:
as §1, §2, §3
B. Bovine spleen trypsin (Sigma)
Substrate solution: for the enzymes A, B, C, D and E, the following substrate a, b, c, d or e, respectively, was dissolved in a solution of DMSO +the above-mentioned buffer (1:9) (note, final concentration of DMSO was 10% in the buffer) to a concentration of 9 times that shown in Table 22. […]
as §6, §7

The target in another experiment is T3, Human plasma thrombin (Homo sapiens, UniProt P00734).
T3 construct: (5) Human plasma thrombin (Kabi, Daiichi Kagaku Yakuhin); purchased Kabi (via Daiichi Kagaku Yakuhin); host or cells: human plasma
Kind of experiment: Assay for thrombin inhibitory activity (Example 36). The settings on record: final concentration up to ×10^-5 M; enzyme 3 × 10^-9 M. The method, then: F. Human plasma thrombin (Sigma)
(§8) Thrombin and FXa: 50 mM Tris-HCl, 7.5 mM EDTA-2Na, 175 mM NaCl (pH 8.4) […]
(§9) Substrate solution: for the enzymes F, G, H and I, the following substrate f, g, h or i, respectively, was dissolved to a final concentration shown in Table 24.
f. H.D-Phe-Pip-Arg-pNA (Kabi Vitrum)
(§10) To wells of an ELISA 96-well microtiter plate, were added a solution of (Arg^58 -Ala^107) SLPI obtained in Example 34 and then the enzyme solution, and the mixture was incubated at 37° C. for 10 minutes. Next, the substrate solution was added to develop the color, whose absorption was then measured at 405 nm. As a control, SLPI was used.

The next experiment has as its target T4, Human plasma plasmin (Homo sapiens, UniProt P00747).
T4 construct: (6) Human plasma plasmin (Kabi, Daiichi Kagaku Yakuhin); purchased Kabi (via Daiichi Kagaku Yakuhin); host or cells: human plasma
In words: Assay for plasmin inhibitory activity (Example 36). The settings on record: final concentration up to ×10^-5 M; enzyme 1.0 × 10^-7 M. The method, then:
G. Human plasma plasmin (sigma)
Plasmin: 50 mM Tris-HCl, 100 mM NaCl (pH 7.4) […]
as §9
g. H.D-Val-Leu-Lys-pNA (Kabi Vitrum)
as §10

The next experiment concerns the target T5, Human plasma kallikrein (Homo sapiens, UniProt P03952).
T5 construct: (7) Human plasma kallikrein (Kabi, Daiichi Kagaku Yakuhin); purchased Kabi (via Daiichi Kagaku Yakuhin); host or cells: human plasma
In words: Assay for kallikrein inhibitory activity (Example 36). The settings on record: final concentration up to ×10^-5 M; enzyme 1.0 × 10^-7 M. The method, then: H. Human plasma kallikrein (Protogene, Funakoshi Yakuhin)
Kallikrein: 50 mM Tris-HCl, 361 mM NaCl, 0.01 mg/ml Polybrene (pH 7.8) […]
as §9
h. H.D-Pro-Phe-Arg-pNA (Kabi Vitram)
as §10

Another experiment concerns Porcine FXa. In words: Assay for Fxa inhibitory activity (Example 36). To be noted: final concentration up to ×10^-5 M; enzyme 1.0 × 10^-8 M. The method, then:
I. Porcine FXa (Daichi Seiyaku)
as §8, §9
i. Ratio 1:1 mixture of the following compounds: [drawing 6]
as §10

Experiment [2] concerns polymorphonuclear leucocyte elastase from human sputum. Kind of experiment: Inhibitory constant (Ki) assay, elastase (Example 37). The settings on record: from Table 26. The method, then: Method for assay is as follow.
Buffer: 0.1M N-(2-hydroxyethyl)piperazine-N'-2-ethanesulfonic acid (HEPES), 1.0M NaCl, 0.1% polyethylene glycol (pH 7.5)
Enzyme solution: the following enzyme was dissolved in the above-mentioned buffer to a concentration 9 times that shown in Table 25.
as §4
Substrate solution: for the enzymes A and B, the following substrate a or b was dissolved in a solution of DMSO+the above-mentioned buffer (1:9), or in DMSO, respectively.
as §5
To wells of an ELISA 96-well microtiter plate, were added 120 μl of the buffer, 20 μl of a sample solution of ([…] -Ala^107) SLPI obtained in Example 25, and 20 μl of the enzyme solution in this order, an the mixture was reacted at 37° C. for 1 hour. Next, 20 μl of the substrate was added to develop at 25° C. Absorption of the developed color was measured at 405 nm. As a control, SLPI was used.
On the basis of the result thus obtained, an inhibitory constant (Ki) of (Arg^58 -Ala^107) SLPI of the present invention was calculated according to the method of Henderson (Henderson, P. J. F. (1972), Biochem. J. 127, 321-333).

T4 sequence (P00747 581-810 limits assumed): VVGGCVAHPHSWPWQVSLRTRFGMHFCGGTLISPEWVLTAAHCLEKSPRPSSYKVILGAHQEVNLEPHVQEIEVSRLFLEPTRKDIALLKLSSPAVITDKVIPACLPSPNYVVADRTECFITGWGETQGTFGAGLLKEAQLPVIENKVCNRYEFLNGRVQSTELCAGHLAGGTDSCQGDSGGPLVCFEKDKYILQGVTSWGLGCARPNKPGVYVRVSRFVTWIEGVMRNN
T4 sequence (P00747 97-580 partner limits assumed): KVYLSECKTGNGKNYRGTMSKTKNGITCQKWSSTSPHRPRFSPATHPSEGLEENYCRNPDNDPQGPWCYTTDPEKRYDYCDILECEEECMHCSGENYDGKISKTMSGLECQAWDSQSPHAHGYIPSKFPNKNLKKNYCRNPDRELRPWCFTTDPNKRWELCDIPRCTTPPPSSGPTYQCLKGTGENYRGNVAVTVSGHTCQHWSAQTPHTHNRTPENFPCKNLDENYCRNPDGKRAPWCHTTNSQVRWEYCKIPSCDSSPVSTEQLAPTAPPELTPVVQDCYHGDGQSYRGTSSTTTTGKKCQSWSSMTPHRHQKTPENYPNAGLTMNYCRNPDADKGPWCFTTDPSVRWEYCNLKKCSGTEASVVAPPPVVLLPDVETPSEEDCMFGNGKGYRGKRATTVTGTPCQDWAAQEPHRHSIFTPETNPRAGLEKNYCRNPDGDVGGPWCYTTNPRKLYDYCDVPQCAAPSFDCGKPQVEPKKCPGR
T5 sequence (P03952 391-638 limits assumed): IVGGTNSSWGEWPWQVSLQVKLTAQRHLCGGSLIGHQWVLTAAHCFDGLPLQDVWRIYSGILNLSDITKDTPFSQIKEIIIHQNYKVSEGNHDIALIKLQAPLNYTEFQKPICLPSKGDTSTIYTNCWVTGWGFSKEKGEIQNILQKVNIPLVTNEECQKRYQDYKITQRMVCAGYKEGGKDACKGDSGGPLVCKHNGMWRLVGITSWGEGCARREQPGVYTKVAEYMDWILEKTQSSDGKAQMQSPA
T5 sequence (P03952 20-390 partner limits assumed): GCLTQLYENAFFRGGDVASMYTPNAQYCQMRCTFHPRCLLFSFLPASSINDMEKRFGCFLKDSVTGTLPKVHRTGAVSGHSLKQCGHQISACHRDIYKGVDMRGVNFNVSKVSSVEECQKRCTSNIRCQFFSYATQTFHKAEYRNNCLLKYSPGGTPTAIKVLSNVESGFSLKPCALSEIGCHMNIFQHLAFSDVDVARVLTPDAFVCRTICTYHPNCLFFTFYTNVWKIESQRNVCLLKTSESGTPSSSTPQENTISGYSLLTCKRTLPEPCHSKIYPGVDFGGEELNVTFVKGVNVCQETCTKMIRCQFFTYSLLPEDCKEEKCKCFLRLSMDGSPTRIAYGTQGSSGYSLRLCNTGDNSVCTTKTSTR

Take “(Arg^58 -Ala^107) SLPI: polypeptide having an amino acid sequence starting with the 58th Arg and ending at the 107th Ala of SLPI (RRKPGKCPVTYGQCLMLNPPNFCEMDGQCKRDLKCCMGMCGKSCVSPVKA)”: the IC50 in experiment [1] was determined as 12 nM; with Bovine spleen trypsin, 2000 nM. The “inhibitory activity to thrombin” value with Human plasma thrombin was “did not exhibit inhibitory activity”. In the experiment with Human plasma plasmin, the “inhibitory activity to plasmin” value is “did not exhibit inhibitory activity”. For the same substance, the “inhibitory activity to kallikrein” value with Human plasma kallikrein is given as “did not exhibit inhibitory activity”. Moreover, the “inhibitory activity to FXa” value in the experiment with Porcine FXa is recorded as “did not exhibit inhibitory activity”. Further, the “relative ratio of inhibitory activity on trypsin to that on elastase (Ki(T)/Ki(E))” value in experiment [2] was “about 12,000”.
